US20230250154A1 (CYTONICS, published 2023)

Tests used:
Experiment in all cases: cell-based or functional assay
MMP1 = biological target: T1, MMP1 (human, UniProt P03956 100-469, limits assumed)
T1 sequence (looked up): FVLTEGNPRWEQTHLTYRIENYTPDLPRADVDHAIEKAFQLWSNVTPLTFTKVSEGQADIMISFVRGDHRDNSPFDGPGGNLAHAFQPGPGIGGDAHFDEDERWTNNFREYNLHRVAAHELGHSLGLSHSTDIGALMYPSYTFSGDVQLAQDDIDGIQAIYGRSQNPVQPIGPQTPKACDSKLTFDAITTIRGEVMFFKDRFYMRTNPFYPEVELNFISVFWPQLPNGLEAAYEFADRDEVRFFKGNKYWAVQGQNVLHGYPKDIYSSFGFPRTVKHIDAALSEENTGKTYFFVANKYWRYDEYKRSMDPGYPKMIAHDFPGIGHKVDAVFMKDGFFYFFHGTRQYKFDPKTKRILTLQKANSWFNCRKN

ADAMTS4 = biological target: T2, ADAMTS4 (human, UniProt O75173 213-685, limits assumed)
T2 sequence (looked up): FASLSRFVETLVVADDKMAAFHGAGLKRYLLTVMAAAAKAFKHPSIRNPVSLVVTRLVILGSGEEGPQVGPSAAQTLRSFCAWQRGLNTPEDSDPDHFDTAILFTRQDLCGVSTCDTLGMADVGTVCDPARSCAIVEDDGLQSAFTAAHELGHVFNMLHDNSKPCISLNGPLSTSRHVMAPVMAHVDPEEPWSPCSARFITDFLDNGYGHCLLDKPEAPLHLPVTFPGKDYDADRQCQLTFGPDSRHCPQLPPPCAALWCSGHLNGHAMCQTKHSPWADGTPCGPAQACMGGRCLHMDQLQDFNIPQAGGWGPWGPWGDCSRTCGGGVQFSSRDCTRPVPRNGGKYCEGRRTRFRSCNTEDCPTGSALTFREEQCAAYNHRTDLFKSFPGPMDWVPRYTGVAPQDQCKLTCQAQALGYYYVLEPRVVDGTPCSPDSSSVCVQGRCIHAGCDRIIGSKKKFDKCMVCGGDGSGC

ADAMTS5 = biological target: T3, ADAMTS5 (human, UniProt Q9UNA0 262-622, limits assumed)
T3 sequence (looked up): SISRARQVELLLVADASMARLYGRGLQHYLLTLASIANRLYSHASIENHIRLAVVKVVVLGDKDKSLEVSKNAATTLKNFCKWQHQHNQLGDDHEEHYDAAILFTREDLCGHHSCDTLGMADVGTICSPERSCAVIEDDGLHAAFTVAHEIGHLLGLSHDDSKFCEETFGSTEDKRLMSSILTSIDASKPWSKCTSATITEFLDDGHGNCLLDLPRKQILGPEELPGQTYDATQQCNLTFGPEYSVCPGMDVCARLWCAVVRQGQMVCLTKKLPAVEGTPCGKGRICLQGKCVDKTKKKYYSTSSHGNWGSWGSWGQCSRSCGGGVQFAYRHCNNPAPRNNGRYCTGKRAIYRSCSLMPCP

MMP13 = MMP13 (human, UniProt P45452 104-471, limits assumed)
Elastase = biological target: Elastase
MMP2 = biological target: T4, MMP2 (human, UniProt P08253 110-660, limits assumed)
T4 sequence (looked up): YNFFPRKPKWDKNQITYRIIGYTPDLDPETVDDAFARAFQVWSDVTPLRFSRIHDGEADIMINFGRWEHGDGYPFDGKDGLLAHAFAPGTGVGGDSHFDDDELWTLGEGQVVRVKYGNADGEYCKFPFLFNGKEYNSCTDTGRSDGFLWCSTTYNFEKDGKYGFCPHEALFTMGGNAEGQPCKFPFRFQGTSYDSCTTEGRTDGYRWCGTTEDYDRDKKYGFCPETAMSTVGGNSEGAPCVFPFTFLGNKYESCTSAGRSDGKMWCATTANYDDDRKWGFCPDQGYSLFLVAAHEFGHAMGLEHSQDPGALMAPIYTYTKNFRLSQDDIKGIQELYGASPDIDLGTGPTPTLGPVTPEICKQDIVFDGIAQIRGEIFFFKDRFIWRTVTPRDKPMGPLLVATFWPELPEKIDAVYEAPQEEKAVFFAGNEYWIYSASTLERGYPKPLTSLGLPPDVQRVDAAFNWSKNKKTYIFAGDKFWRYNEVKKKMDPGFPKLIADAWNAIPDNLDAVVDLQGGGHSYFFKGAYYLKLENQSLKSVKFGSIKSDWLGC

Cathepsin G = biological target: T5, Cathepsin G (UniProt P08311 21-244)
T5 sequence (looked up): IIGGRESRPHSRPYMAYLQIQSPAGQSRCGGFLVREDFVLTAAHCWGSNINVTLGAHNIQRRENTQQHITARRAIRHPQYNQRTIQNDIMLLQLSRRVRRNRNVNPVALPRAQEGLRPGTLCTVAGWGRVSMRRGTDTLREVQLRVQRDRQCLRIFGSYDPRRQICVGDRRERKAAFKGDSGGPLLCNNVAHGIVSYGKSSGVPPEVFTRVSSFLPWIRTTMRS

MMP7 = biological target: T6, MMP7 (UniProt P09237 95-267, limits assumed)
T6 sequence (looked up): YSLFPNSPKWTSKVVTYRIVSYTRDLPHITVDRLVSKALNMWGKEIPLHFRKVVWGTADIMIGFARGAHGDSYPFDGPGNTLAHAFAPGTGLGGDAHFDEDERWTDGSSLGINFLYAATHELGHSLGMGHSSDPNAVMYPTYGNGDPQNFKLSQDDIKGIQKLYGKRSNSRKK

MMP3 = MMP3 (human, UniProt P08254 100-477, limits assumed)
Sequence of MMP3 (P08254 100-477 limits assumed): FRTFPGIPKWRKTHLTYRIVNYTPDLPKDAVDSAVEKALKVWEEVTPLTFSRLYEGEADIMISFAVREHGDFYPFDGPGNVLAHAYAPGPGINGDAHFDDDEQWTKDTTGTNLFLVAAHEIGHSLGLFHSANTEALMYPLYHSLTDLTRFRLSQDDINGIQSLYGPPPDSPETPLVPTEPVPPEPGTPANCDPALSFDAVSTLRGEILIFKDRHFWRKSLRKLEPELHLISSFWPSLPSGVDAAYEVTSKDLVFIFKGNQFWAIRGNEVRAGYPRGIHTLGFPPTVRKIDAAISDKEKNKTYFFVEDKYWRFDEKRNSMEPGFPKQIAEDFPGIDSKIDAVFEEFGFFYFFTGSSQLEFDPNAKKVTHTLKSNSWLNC

MMP9 = MMP9 (human, UniProt P14780 107-707, limits assumed)
Sequence of MMP9 (P14780 107-707 limits assumed): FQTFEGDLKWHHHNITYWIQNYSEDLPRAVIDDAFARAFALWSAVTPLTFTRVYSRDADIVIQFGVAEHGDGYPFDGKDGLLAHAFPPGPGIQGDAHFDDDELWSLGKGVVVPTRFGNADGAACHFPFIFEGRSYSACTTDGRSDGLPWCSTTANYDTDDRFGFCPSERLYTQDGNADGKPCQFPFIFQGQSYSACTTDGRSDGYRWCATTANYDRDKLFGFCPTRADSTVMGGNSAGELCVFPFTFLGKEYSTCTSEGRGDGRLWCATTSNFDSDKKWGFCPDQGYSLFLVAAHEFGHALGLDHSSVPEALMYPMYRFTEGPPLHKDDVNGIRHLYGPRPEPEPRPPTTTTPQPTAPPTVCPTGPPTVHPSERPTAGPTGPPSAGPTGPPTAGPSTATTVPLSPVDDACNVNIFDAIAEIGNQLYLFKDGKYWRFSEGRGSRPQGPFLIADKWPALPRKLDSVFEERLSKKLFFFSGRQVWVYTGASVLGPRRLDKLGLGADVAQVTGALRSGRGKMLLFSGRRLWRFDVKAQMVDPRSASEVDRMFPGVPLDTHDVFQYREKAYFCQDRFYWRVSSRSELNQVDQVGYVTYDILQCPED

MMP8 = MMP8 (human, UniProt P22894 101-467, limits assumed)
Sequence of MMP8 (P22894 101-467 limits assumed): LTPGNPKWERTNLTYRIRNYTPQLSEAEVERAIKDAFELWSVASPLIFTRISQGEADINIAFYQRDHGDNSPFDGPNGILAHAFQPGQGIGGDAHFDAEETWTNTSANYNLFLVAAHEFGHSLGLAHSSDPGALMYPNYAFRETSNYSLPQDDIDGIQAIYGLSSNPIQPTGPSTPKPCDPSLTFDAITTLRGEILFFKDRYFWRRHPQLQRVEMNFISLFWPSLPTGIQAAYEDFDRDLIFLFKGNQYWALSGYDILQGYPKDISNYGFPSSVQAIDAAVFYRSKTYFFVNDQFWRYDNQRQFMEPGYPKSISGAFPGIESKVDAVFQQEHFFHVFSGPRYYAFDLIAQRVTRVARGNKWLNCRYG

B1: Variant A2M, bait region SEQ ID NO 10 (other)
chain: SVSGKPQYMVLVPSLLHTETTEKGCVLLSYLNETVTVSASLESVRGNRSLFTDLEAENDVLHCVAFAVPKSSSNEEVMFLTVQVKGPTQEFKKRTTVMVKNEDSLVFVQTDKSIYKPGQTVKFRVVSMDENFHPLNELIPLVYIQDPKGNRIAQWQSFQLEGGLKQFSFPLSSEPFQGSYKVVVQKKSGGRTEHPFTVEEFVLPKFEVQVTVPKIITILEEEMNVSVCGLYTYGKPVPGHVTVSICRKYSDASDCHGEDSQAFCEKFSGQLNSHGCFYQQVKTKVFQLKRKEYEMKLHTEAQIQEEGTVVELTGRQSSEITRTITKLSFVKVDSHFRQGIPFFGQVRLVDGKGVPIPNKVIFIRGNEANYYSNATTDEHGLVQFSINTTNVMGTSLTVRVNYKDRSPCYGYQWVSEEHEEAHHTAYLVFSPSKSFVHLEPMSHELPCGHTQTVQAHYILNGGTLLGLKKLSFYYLIMAKGGIVRTGTHGLLVKQEDMKGHFSISIPVKSDIAPVARLLIYAVLPTGDVIGDSAKYDVENCLANKVDLSFSPSQSLPASHAHLRVTAAPQSVCALRAVDQSVLLMKPDAELSASSVYNLLPEKDLTGFPGPLNDQDDEDCINRHNVYINGITYTPVSSTNEKDMYSFLEDMGLKAFTNSKIRKPKMCPQLEHGPEGEGLGEGIPENFYGVSEDLVVQISELEGRGSVEEPHTKLRKYFPETWIWDLVVVNSAGVAEVGVTVPDTITEWKAGAFCLSEDAGLGISSTASLRAFQPFFVELTMPYSVIRGEAFTLKATVLNYLPKCIRVSVQLEASPAFLAVPVEKEQAPHCICANGRQTVSWAVTPKSLGNVNFTVSAEALESQELCGTEVPSVPEHGRKDTVIKPLLVEPEGLEKETTFNSLLCPSGGEVSEELSLKLPPNVVEESARASVSVLGDILGSAMQNTQNLLQMPYGCGEQNMVLFAPNIYVLDYLNETQQLTPEIKSKAIGYLNTGYQRQLNYKHYDGSYSTFGERYGRNQGNTWLTAFVLKTFAQARAYIFIDEAHITQALIWLSQRQKDNGCFRSSGSLLNNAIKGGVEDEVTLSAYITIALLEIPLTVTHPVVRNALFCLESAWKTAQEGDHGSHVYTKALLAYAFALAGNQDKRKEVLKSLNEEAVKKDNSVHWERPQKPKAPVGHFYEPQAPSAEVEMTSYVLLAYLTAQPAPTSEDLTSATNIVKWITKQQNAQGGFSSTQDTVVALHALSKYGAATFTRTGKAAQVTIQSSGTFSSKFQVDNNNRLLLQQVSLPELPGEYSMKVTGEGCVYLQTSLKYNILPEKEEFPFALGVQTLPQTCDEPKAHTSFQISLSVSYTGSRSASNMAIVDVKMVSGFIPLKPTVKMLERSNHVSRTEVSSNHVLIYLDKVSNQTLSLFFTVLQDVPVRDLKPAIVKVYDYYETDEFAIAEYNAPCSKDLGNADYKDDDDKGASHHHHHH
Protease Inhibition (% of WT) (MMP1): 111 % of WT | Protease Inhibition (% of WT) (ADAMTS4): 159 % of WT | Protease Inhibition (% of WT) (ADAMTS5): 412 % of WT | Protease Inhibition (% of WT) (MMP13): 128 % of WT | Protease Inhibition (% of WT) (Elastase): 106 % of WT | Protease Inhibition (% of WT) (MMP2): 25 % of WT | Protease Inhibition (% of WT) (Cathepsin G): 134 % of WT | Protease Inhibition (% of WT) (MMP7): 191 % of WT | Protease Inhibition (% of WT) (MMP3): 27 % of WT | Protease Inhibition (% of WT) (MMP9): 16 % of WT | Protease Inhibition (% of WT) (MMP8): 38 % of WT

B2: Variant A2M, bait region SEQ ID NO 12 (other)
chain: SVSGKPQYMVLVPSLLHTETTEKGCVLLSYLNETVTVSASLESVRGNRSLFTDLEAENDVLHCVAFAVPKSSSNEEVMFLTVQVKGPTQEFKKRTTVMVKNEDSLVFVQTDKSIYKPGQTVKFRVVSMDENFHPLNELIPLVYIQDPKGNRIAQWQSFQLEGGLKQFSFPLSSEPFQGSYKVVVQKKSGGRTEHPFTVEEFVLPKFEVQVTVPKIITILEEEMNVSVCGLYTYGKPVPGHVTVSICRKYSDASDCHGEDSQAFCEKFSGQLNSHGCFYQQVKTKVFQLKRKEYEMKLHTEAQIQEEGTVVELTGRQSSEITRTITKLSFVKVDSHFRQGIPFFGQVRLVDGKGVPIPNKVIFIRGNEANYYSNATTDEHGLVQFSINTTNVMGTSLTVRVNYKDRSPCYGYQWVSEEHEEAHHTAYLVFSPSKSFVHLEPMSHELPCGHTQTVQAHYILNGGTLLGLKKLSFYYLIMAKGGIVRTGTHGLLVKQEDMKGHFSISIPVKSDIAPVARLLIYAVLPTGDVIGDSAKYDVENCLANKVDLSFSPSQSLPASHAHLRVTAAPQSVCALRAVDQSVLLMKPDAELSASSVYNLLPEKDLTGFPGPLNDQDDEDCINRHNVYINGITYTPVSSTNEKDMYSFLEDMGLKAFTNSKIRKPKMCPQLEHGPEGEGEGEIPENFEFRGVSEDLVVQISELEGRGSVEEPHTKLRKYFPETWIWDLVVVNSAGVAEVGVTVPDTITEWKAGAFCLSEDAGLGISSTASLRAFQPFFVELTMPYSVIRGEAFTLKATVLNYLPKCIRVSVQLEASPAFLAVPVEKEQAPHCICANGRQTVSWAVTPKSLGNVNFTVSAEALESQELCGTEVPSVPEHGRKDTVIKPLLVEPEGLEKETTFNSLLCPSGGEVSEELSLKLPPNVVEESARASVSVLGDILGSAMQNTQNLLQMPYGCGEQNMVLFAPNIYVLDYLNETQQLTPEIKSKAIGYLNTGYQRQLNYKHYDGSYSTFGERYGRNQGNTWLTAFVLKTFAQARAYIFIDEAHITQALIWLSQRQKDNGCFRSSGSLLNNAIKGGVEDEVTLSAYITIALLEIPLTVTHPVVRNALFCLESAWKTAQEGDHGSHVYTKALLAYAFALAGNQDKRKEVLKSLNEEAVKKDNSVHWERPQKPKAPVGHFYEPQAPSAEVEMTSYVLLAYLTAQPAPTSEDLTSATNIVKWITKQQNAQGGFSSTQDTVVALHALSKYGAATFTRTGKAAQVTIQSSGTFSSKFQVDNNNRLLLQQVSLPELPGEYSMKVTGEGCVYLQTSLKYNILPEKEEFPFALGVQTLPQTCDEPKAHTSFQISLSVSYTGSRSASNMAIVDVKMVSGFIPLKPTVKMLERSNHVSRTEVSSNHVLIYLDKVSNQTLSLFFTVLQDVPVRDLKPAIVKVYDYYETDEFAIAEYNAPCSKDLGNADYKDDDDKGASHHHHHH
Protease Inhibition (% of WT) (MMP1): 108 % of WT | Protease Inhibition (% of WT) (ADAMTS4): 208 % of WT | Protease Inhibition (% of WT) (ADAMTS5): 440 % of WT | Protease Inhibition (% of WT) (MMP13): 72 % of WT | Protease Inhibition (% of WT) (Elastase): 117 % of WT | Protease Inhibition (% of WT) (MMP2): 16 % of WT | Protease Inhibition (% of WT) (Cathepsin G): 105 % of WT | Protease Inhibition (% of WT) (MMP7): 160 % of WT | Protease Inhibition (% of WT) (MMP3): 182 % of WT | Protease Inhibition (% of WT) (MMP9): 0 % of WT | Protease Inhibition (% of WT) (MMP8): 54 % of WT
